Test results taken from article PMC4333382, “RNA helicase A activity is inhibited by oncogenic transcription factor EWS-FLI1” (Nucleic Acids Research, 2015).

T1: EWS-FLI1 (UniProt F1JVV7)
T1 chain: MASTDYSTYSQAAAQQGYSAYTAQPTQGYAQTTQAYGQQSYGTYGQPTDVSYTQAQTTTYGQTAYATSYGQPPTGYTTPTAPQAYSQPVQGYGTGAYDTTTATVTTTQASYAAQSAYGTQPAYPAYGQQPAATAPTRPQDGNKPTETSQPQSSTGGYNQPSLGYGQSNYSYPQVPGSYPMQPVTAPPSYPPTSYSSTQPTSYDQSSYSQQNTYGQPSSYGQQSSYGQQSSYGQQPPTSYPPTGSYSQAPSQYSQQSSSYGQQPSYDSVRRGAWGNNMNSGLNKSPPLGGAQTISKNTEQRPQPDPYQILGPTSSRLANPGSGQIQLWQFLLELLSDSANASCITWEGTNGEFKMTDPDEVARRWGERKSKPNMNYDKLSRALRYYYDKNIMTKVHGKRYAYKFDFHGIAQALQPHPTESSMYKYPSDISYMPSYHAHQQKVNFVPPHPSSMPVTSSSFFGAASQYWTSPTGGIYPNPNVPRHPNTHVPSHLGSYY

B1: wt ets-DNA (dsDNA)
DNA 1: ATGTAGACCGGAAGTAACTA
DNA 2: TAGTTACTTCCGGTCTACAT
B2: mut ets-DNA (GGAA to GCTA) (dsDNA)
DNA 1: ATGTAGACCGCTAGTAACTA
DNA 2: TAGTTACTAGCGGTCTACAT

Assays:
EWS-FLI1 [1] = target: T1, EWS-FLI1; test: competition; 30 nM EWS-FLI1, competes with 32P HDV RNA (N1?); EMSA: 25 mM HEPES pH 7.4, 80 mM NaCl, 2 mM MgCl2, 2 mM DTT, Superase In, 5 pmol 32P-RNA, 10 min room temperature, 6% native PAGE 0.5x TBE; AFM: 25 mM HEPES pH 7.4, 2 mM MgCl2, 1 mM TCEP, 25 C, 1 min; details: protein: recombinant; blunt
EWS-FLI1 [2] = target: T1, EWS-FLI1; test: as above; details: protein: recombinant; blunt

Binder	binding result (EWS-FLI1 [1])	binding signal (EWS-FLI1 [2])
B1	binds	–
B2	–	30 % of wild-type efficiency at displacing RNA
